We go through two substances from patent US20180371090A1.

pKd: −log10 of the molar value.

The target in test [1] is His-tagged human FcγRIIIA (V176) (human) (UniProt P08637). Description: SPR steady-state, His-captured receptor, 25 C.
Test [2] concerns the target His-tagged cynomolgus FcγRIIB (cynomolgus). The experiment in a line: SPR steady-state, His-captured receptor, 25 C.
In test [3] the target is His-tagged human FcγRIIA (H131) (human) (UniProt P12318). Description: SPR steady-state, His-captured receptor, 25 C.
For test [4], the target named is His-tagged human FcγRIIIB (human) (UniProt O75015). Description: SPR steady-state, His-captured receptor, 25 C.
For test [5], the target named is His-tagged cynomolgus FcγRIIA (cynomolgus). The experiment in a line: SPR steady-state, His-captured receptor, 25 C.
In test [6] the target is His-tagged human FcγRIIIA (F176) (human) (UniProt P08637). The experiment in a line: SPR steady-state, His-captured receptor, 25 C.
Test [7] has as its target His-tagged cynomolgus FcγRIIIA (cynomolgus) (UniProt Q8SPW2). The experiment in a line: SPR steady-state, His-captured receptor, 25 C.
Test [8] deals with His-tagged human FcγRI (human) (UniProt P12314). The experiment in a line: SPR (Biacore T200), His-tagged receptor captured by anti-penta-His, antibody injected, 25 C.
The target in test [9] is His-tagged human FcγRIIA (R131) (human) (UniProt P12318). The experiment in a line: SPR steady-state, His-captured receptor, 25 C.
The target of test [10] is His-tagged human FcγRIIB (human) (UniProt P31994). Description: SPR steady-state, His-captured receptor, 25 C.
Sequence of His-tagged human FcγRIIB (human) (P31994 46-217 limits assumed): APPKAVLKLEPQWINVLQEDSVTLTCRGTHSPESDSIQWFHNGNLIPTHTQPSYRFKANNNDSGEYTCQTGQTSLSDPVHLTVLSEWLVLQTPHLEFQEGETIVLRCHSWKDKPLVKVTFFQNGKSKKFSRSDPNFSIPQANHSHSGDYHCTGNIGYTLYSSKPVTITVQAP

Sequence of His-tagged human FcγRI (human) (P12314 16-288 limits assumed): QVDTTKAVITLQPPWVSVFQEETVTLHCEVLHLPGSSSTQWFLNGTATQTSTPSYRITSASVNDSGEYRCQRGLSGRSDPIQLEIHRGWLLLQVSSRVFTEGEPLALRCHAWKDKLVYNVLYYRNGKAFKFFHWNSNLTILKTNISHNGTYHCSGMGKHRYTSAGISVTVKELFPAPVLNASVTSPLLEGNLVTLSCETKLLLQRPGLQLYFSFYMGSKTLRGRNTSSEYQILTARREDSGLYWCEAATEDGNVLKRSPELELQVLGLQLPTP
Sequence of His-tagged cynomolgus FcγRIIIA (cynomolgus) (Q8SPW2 17-208 limits assumed): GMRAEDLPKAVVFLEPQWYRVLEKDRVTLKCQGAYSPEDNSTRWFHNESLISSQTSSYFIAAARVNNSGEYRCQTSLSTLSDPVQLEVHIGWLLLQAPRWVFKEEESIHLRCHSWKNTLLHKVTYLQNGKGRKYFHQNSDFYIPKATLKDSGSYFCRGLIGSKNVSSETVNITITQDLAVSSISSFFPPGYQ
Sequence of His-tagged human FcγRIIA (H131) (human) (P12318 36-218 limits assumed): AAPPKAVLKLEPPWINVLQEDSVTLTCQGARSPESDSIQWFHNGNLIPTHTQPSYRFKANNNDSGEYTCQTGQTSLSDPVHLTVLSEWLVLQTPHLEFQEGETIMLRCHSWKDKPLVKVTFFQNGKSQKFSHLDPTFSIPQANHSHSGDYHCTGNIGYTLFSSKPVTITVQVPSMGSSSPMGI
Sequence of His-tagged human FcγRIIIA (V176) (human) (P08637 17-208 F176V limits assumed): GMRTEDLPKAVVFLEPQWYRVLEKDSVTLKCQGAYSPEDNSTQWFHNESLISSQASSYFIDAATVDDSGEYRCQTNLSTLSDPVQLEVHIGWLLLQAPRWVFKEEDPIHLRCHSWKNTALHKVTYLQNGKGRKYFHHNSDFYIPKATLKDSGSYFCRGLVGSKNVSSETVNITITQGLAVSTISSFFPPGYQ
Sequence of His-tagged human FcγRIIIA (F176) (human) (P08637 17-208 limits assumed): as the sequence (P08637 17-208 F176V limits assumed) above, with V160F counted along it
Sequence of His-tagged human FcγRIIIB (human) (O75015 17-200 limits assumed): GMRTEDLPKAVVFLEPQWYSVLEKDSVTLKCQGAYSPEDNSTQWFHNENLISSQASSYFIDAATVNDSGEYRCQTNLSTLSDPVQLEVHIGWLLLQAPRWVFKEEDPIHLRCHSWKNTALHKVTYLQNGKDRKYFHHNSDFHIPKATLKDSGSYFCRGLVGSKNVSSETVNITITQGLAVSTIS
Sequence of His-tagged human FcγRIIA (R131) (human) (P12318 36-218 H167R limits assumed): as the sequence (P12318 36-218 limits assumed) above, with H132R counted along it

For orientation: pKd means the Kd on a negative log10 scale, so that one unit is a factor of ten. On to “Wild-type IgG1 Isotype Control (antibody)”, for which the pKd was 5.82 in test [1]; 5.38 in test [2]; 5.96 in test [3]; 5.64 in test [4]; 5.38 in [5]; 5.89 in test [6]. The pKd in [7] is 6.22; in test [8], 8.37. Further, in test [8], the T1/2 worked out at 15 min.
As a reminder, the koff is a measure of how fast the partners let go of each other. Low readings indicate a long-lived complex, high ones a short-lived complex. A word on the kon: it is a measure of how fast the partners come together. Higher therefore signals fast association. With “Wild-type IgG4 "CPPC" Isotype Control (antibody)”, the pKd is 5.00 in test [1]; 5.02 in [2]; 4.92 in [3]; 4.71 in [5]; 4.59 in test [6]; 5.24 in test [7]. For the same substance, the pKd was 5.00 in test [9], 5.01 in [10] and 7.86 in [8]. In addition, in test [8], the T1/2 was 5 min. In test [8], this substance registered a koff of 0.00236 s⁻¹. Besides, in test [8], the kon worked out at 171000 M⁻¹ s⁻¹.
